# Experimental data from US20250257143A1 (FORTE SUBSIDIARY, published 2025).
# T1: huCD122-HIS (ARCO Bio | Cat No. CD2-H5221) (human, UniProt P14784 27-239)
# T1 construct: Bought analyte of the BLI assay; also called human CD122; not shown: His tag
# T1 sequence (looked up): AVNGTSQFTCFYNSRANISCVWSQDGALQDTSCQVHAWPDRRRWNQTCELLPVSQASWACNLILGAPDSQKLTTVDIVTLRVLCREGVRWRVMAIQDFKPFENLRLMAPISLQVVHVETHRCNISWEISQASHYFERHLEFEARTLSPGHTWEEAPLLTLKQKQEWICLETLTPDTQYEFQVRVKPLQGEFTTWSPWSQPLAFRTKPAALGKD
# B1: G15 (antibody, human IgG4 S228P, kappa)
# heavy: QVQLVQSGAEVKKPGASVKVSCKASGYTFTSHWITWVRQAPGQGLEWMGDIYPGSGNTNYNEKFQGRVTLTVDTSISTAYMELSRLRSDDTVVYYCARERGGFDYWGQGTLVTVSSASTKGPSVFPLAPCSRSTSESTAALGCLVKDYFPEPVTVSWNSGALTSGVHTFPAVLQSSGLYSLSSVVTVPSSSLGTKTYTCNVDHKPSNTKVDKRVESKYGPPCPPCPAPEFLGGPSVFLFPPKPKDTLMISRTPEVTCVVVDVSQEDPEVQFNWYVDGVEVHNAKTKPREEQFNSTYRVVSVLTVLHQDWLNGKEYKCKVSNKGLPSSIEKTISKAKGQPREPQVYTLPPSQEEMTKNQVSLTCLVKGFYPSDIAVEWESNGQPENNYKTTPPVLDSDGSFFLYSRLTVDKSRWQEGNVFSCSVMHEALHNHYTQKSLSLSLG
# light: DIQMTQSPSSLSASVGDRVTITCRASQDISNFLNWYQQKPEGTLKLLIYYTSGLHSGVPSRFSGSGSGTDFTLTISSLQPEDVATYYCQQDNNHPYTFGQGTKLEIKRTVAAPSVFIFPPSDEQLKSGTASVVCLLNNFYPREAKVQWKVDNALQSGNSQESVTEQDSKDSTYSLSSTLTLSKADYEKHKVYACEVTHQGLSSPVTKSFNRGEC
# notes: Humanized, human IgG4 (S228P), kappa
# B2: G5 (antibody, human IgG1, kappa)
# heavy: not shown
# light: B1 light
# notes: Humanized, human IgG1 (G1M17), kappa
# B3: G2 (antibody, human IgG1, kappa)
# heavy: not shown
# light: B1 light
# notes: as for B2
# B4: G8 (antibody, human IgG1, kappa)
# heavy: not shown
# light: B1 light
# notes: as for B2
# B5: G12 (antibody, human IgG4 S228P, kappa)
# heavy: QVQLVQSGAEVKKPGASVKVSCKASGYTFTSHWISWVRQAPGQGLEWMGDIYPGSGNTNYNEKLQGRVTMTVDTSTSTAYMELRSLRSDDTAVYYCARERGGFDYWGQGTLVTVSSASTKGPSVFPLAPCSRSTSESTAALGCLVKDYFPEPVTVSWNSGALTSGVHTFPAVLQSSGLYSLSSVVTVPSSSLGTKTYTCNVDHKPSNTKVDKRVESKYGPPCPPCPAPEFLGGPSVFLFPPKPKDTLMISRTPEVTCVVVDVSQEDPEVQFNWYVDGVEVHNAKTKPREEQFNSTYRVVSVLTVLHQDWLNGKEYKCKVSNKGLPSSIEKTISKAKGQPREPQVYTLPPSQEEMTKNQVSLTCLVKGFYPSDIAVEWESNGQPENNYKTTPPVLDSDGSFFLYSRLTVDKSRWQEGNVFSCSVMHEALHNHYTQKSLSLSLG
# light: B1 light
# notes: as for B1
# B6: G18 (antibody, human IgG4 S228P, kappa)
# heavy: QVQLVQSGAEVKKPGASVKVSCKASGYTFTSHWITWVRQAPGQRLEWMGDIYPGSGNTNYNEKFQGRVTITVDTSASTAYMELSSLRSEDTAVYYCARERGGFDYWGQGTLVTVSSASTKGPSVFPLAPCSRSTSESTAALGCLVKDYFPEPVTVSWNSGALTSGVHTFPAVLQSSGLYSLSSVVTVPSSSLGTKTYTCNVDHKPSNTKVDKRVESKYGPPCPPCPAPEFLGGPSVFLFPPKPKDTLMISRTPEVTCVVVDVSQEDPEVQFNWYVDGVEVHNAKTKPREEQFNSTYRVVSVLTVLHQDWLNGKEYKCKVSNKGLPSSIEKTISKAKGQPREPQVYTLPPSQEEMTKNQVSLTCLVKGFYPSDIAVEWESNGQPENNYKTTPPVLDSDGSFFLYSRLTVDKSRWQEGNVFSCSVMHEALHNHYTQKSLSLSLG
# light: B1 light
# notes: as for B1
# B7: G1 (antibody)
# heavy: not shown
# light: DIQMTQTTSSLSASLGDRVTINCRASQDISNFLNWYQQKPDGTLKLLIYYTSGLHSGVPSRFSGSGSGTDYSLTISNLEEEDIATYFCQQDNNHPYTFGSGTKLEIKRTVAAPSVFIFPPSDEQLKSGTASVVCLLNNFYPREAKVQWKVDNALQSGNSQESVTEQDSKDSTYSLSSTLTLSKADYEKHKVYACEVTHQGLSSPVTKSFNRGEC
# notes: Chimeric: mouse parental variable domains in human IgG1 (G1M17 allotype), kappa; also called M5 IgG1 parental; G1 mouse parental IgG1 chimera
# B8: G11 (antibody, human IgG4 S228P, kappa)
# heavy: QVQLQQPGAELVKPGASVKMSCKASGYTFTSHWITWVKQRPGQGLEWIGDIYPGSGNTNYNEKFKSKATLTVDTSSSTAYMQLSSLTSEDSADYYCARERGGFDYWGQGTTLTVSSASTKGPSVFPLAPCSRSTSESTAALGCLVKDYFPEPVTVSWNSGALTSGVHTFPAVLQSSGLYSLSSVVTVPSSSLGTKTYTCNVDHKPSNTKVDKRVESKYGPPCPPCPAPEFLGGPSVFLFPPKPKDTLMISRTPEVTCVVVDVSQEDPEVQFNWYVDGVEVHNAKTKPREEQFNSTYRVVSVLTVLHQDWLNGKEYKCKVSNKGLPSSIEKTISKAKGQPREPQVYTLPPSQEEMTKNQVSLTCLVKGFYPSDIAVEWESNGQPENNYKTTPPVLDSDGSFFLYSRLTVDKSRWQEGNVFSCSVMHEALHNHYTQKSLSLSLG
# light: B7 light
# notes: Chimeric: mouse parental variable domains in human IgG4 (S228P), kappa; also called M5 IgG4 parental; G11 mouse parental IgG4 chimera
# Molecular target: T1, huCD122-HIS (ARCO Bio | Cat No. …)
# Assay: BLI Octet; reference: parental chimeras (G1, G11)
# Description: (§1) Based on Bio-Layer Interferometry (BLI), the Octet® BLI system is a fluidics-free instrument platform that enables real-time, label-free analysis for the determination of kinetics, affinity and antibody/protein quantitation. Binding experiments were performed on Octet HTX at 25° C. The analyte used was huCD122-HIS (ARCO Bio | Cat No. CD2-H5221) at a molecular weight of 25.4 kDa. The antibodies were loaded onto Anti-human Fc capture (AHC) sensors. The loaded sensors were dipped into serial dilutions of huCD122-His (Starting at 20 nM, 1:3 dilution, 4 points). Reference sample well (buffer) was used for data analysis. Kinetic constants were calculated using a monovalent (1:1) binding model. The assay buffer used was PBS with 0.1% BSA, […], pH 7.2. The regeneration buffer used was 10 mM Glycine buffer (pH 1.7). The four concentrations of huCD122-His used to determine anti-CD122 antibody binding and dissociation properties were 0.0 nM, 2.2 nM, 6.7 nM, and 20 nM. Sensorgram plots to display antibody binding characteristics were generated. The mouse parental chimera configurations in both IgG1 and IgG4 backbones (M5 IgG1 parental and M5 IgG4 parental) were tested as well as each combination of the humanized 3 HC and 3 LC variants in either an IgG1 or an IgG4 backbone.
row,Binder,fold change in KD against the parental chimera
1,B1,< 3 fold
2,B2,< 3 fold
3,B3,< 3 fold
4,B4,< 3 fold
5,B5,< 3 fold
6,B6,< 3 fold

# Molecular target: T1, huCD122-HIS (ARCO Bio | Cat No. …)
# Assay: BLI Octet, antibody captured on AHC sensor, huCD122-His analyte, 1:1 fit
# Description: as §1
Binder,Kd,Response,koff,kon
B7,0.727 nM,0.381,0.0004 s⁻¹,549000 M⁻¹ s⁻¹
B8,0.795 nM,0.326,0.000423 s⁻¹,532000 M⁻¹ s⁻¹
B1,1.37 nM,0.337,0.000639 s⁻¹,466000 M⁻¹ s⁻¹
B2,1.18 nM,0.377,0.000581 s⁻¹,494000 M⁻¹ s⁻¹
B3,0.831 nM,0.372,0.000409 s⁻¹,492000 M⁻¹ s⁻¹
B4,0.943 nM,0.389,0.000425 s⁻¹,450000 M⁻¹ s⁻¹
B5,1.08 nM,0.354,0.000488 s⁻¹,451000 M⁻¹ s⁻¹
B6,0.98 nM,0.315,0.000453 s⁻¹,462000 M⁻¹ s⁻¹

# Molecular target: T1, huCD122-HIS (ARCO Bio | Cat No. …)
# Assay: BLI Octet, antibody captured on AHC sensor, huCD122-His analyte, 1:1 fit; second batch
# Description: as §1
Binder,Kd,Response,koff,kon
B8,0.866 nM,0.327,0.000491 s⁻¹,567000 M⁻¹ s⁻¹
B1,1.33 nM,0.312,0.000647 s⁻¹,485000 M⁻¹ s⁻¹
B5,1.43 nM,0.334,0.000646 s⁻¹,452000 M⁻¹ s⁻¹
